According to patent US20120156201A1 (PROTAB, published 2012):
Changes are numbered by the printed parent chain.

T1: peptide-6 (HSP65-derived peptide, GPKGRNVVLEKKWGAP) (Mycobacterium tuberculosis)
T1 construct: also called peptide-6 antigen; 15
T1 peptide: GPKGRNVVLEKKWGAP

B1: chimeric mouse-human anti-peptide-6 IgG1 antibody (antibody, V domains shown)
VH: QVTLKESGPGILQPSQTLSLTCSFSGFSLSTSNMGVGWIRQPSGKGLEWLLHILWNDSKYYNPALKSRLTISKDTYNNQVFLKIANVDTADTATYYCARMGGYYGNYGYYAMDYWGQGTSVTVSS
VL: QIVLTQSPAIMSASLGERVTMTCTASSSVSSSYLHWYQQKPGSSPKLWIYSTSNLASGVPARFSGSGSGTSYSLTISSMEAEDAATYYCHQYHRSPPTFGSGTKLEIK
notes: also called chimeric mouse IgG1; chimeric mouse antibody
B2: mouse anti-peptide-6 monoclonal antibody (IgM) (antibody, V domains shown)
VH: B1 VH
VL: B1 VL
notes: also called mouse-IgM
B3: humanized anti-peptide-6 antibody variant VH2/VK2 (antibody, V domains shown)
VH: QVTLKESGPALVKPTQTLTLTCSFSGFSLSTSNMGVGWIRQPAGKGLEWLLHILWNDSKYYNPALKSRLTISKDTYKNQVVLTMTNMDPVDTATYYCARMGGYYGNYGYYAMDYWGQGTLVTVSS
VL: QIVLTQSPATLSLSPGERATMSCTASSSVSSSYLHWYQQKPGKAPKLWIYSTSNLASGVPSRFSGSGSGTDYTLTISSLQPEDFATYYCHQYHRSPPTFGQGTKLEIK
B4: humanized anti-peptide-6 antibody variant VH2/VK1 (antibody, V domains shown)
VH: B3 VH
VL: B3 VL with T10I, P81A
B5: humanized anti-peptide-6 antibody variant VH4/VK3 (antibody, V domains shown)
VH: B3 VH with L51A, Y76S
VL: B3 VL with M21L
B6: humanized anti-peptide-6 antibody variant VH3/VK2 (antibody, V domains shown)
VH: B3 VH with Y76S
VL: B3 VL
B7: humanized anti-peptide-6 antibody variant VH1/VK1 (antibody, V domains shown)
VH: B3 VH with L11I, A43S, L120S
VL: B3 VL with T10I, P81A
B8: humanized anti-peptide-6 antibody variant VH4/VK1 (antibody, V domains shown)
VH: B3 VH with L51A, Y76S
VL: B3 VL with T10I, P81A
B9: humanized anti-peptide-6 antibody variant VH3/VK3 (antibody, V domains shown)
VH: B3 VH with Y76S
VL: B3 VL with M21L
B10: humanized anti-peptide-6 antibody variant VH4/VK2 (antibody, V domains shown)
VH: B3 VH with L51A, Y76S
VL: B3 VL
B11: humanized anti-peptide-6 antibody variant VH1/VK2 (antibody, V domains shown)
VH: B3 VH with L11I, A43S, L120S
VL: B3 VL
B12: humanized anti-peptide-6 antibody variant VH1/VK3 (antibody, V domains shown)
VH: B3 VH with L11I, A43S, L120S
VL: B3 VL with M21L
B13: humanized anti-peptide-6 antibody variant VH3/VK1 (antibody, V domains shown)
VH: B3 VH with Y76S
VL: B3 VL with T10I, P81A
B14: humanized anti-peptide-6 antibody variant VH2/VK3 (antibody, V domains shown)
VH: B3 VH
VL: B3 VL with M21L
notes: also called humanized VH2/VK3; PRO01 VH2/VK3

Assays:
[1] = target: T1, peptide-6 (HSP65-derived peptide, …); test: ELISA, plates precoated with 10 µg/ml peptide-6, goat anti-human IgG peroxidase
[2] = target: T1, peptide-6 (HSP65-derived peptide, …); test: ELISA, plates precoated with 10 µg/ml peptide-6, goat anti-mouse IgM peroxidase
[3] = target: T1, peptide-6 (HSP65-derived peptide, …); test: ELISA, peptide-6 coated at 10 µg/ml
[4] = target: T1, peptide-6 (HSP65-derived peptide, …); test: ELISA, peptide-6 coated plate
[5] = target: T1, peptide-6 (HSP65-derived peptide, …); test: ELISA, peptide-6 coated at 10 µg/ml, anti-human IgG kappa peroxidase
[6] = target: T2, human adenylyl cyclase-associated protein 1 (CAP1) fused to His tag at the N-terminus (human, UniProt Q01518 1-475); test: Western blot of over-expressed and purified His-CAP1
T2 construct: also called His-CAP1; His-tagged CAP1; not shown: 6xHIS tag at the N terminus from a modified Pet22b vector
T2 sequence (Q01518 whole entry, the tested form may be a part): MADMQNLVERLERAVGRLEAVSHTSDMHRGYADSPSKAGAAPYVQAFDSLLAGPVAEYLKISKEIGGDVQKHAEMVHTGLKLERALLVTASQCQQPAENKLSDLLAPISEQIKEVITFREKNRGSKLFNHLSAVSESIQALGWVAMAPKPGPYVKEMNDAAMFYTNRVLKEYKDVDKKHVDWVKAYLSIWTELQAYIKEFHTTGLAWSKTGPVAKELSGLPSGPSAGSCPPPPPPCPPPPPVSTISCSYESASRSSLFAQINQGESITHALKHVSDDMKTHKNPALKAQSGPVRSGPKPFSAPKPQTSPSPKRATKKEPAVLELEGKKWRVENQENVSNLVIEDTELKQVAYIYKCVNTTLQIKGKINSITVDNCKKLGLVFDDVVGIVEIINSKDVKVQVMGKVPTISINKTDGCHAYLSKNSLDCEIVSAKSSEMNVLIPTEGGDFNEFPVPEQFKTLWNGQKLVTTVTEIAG

| Binder | binding result [4] | binding result [5] | also measured |
| --- | --- | --- | --- |
| B1 | – | – | binding result [1]: binds |
| B2 | – | – | binding result [2]: binds |
| B3 | – | – | binding result [3]: binds |
| B4 | binds | – | – |
| B5 | – | binds | – |
| B6 | – | binds | – |
| B7 | binds | – | – |
| B8 | – | binds | – |
| B9 | – | binds | – |
| B10 | – | binds | – |
| B11 | binds | – | – |
| B12 | binds | – | – |
| B13 | binds | – | – |
| B14 | – | – | binding result [3]: binds; binding result [6]: binds |
